Assay results from patent US20070099830A1 (MIT, published 2007).

Molecular target: T1, glutamate dehydrogenase (endogenous, 293T cells) (human, UniProt P00367 54-558, ADP-ribosylated (32P-labelled) in the mitochondrial labelling experiments; site not stated)
T1 construct: Endogenous protein in 293T lysate or mitochondria; also called GDH
Assay: anti-FLAG immunoprecipitation from 32P-NAD labelled mitochondria of 293T cells overexpressing Sirt4-FLAG, autoradiography
Procedure: FIG. 5. Glutamate dehydrogenase is ADP-ribosylated in vivo and interacts with Sirt4. FIG. 5A. Mitochondria (50 mg) from 293T cells were incubated with [³²P]-NAD at 37° C. for 30 min. Proteins were separated by SDS-PAGE, transferred to a nitrocellulose membrane, and radioactivity was measured by exposure to film. FIG. 5B. Mitochondrial proteins were ADP-ribosylated as described for FIG. 5A, and lysis was performed in NP-40 buffer containing 10 mM DTT and 0.5 mM EDTA. Clarified lysate was incubated with protein A resin that had been pre-incubated with antibodies against hSirt4, ANT or glutamate dehydrogenase (GDH). FIG. 5C. 293T cells were transiently transfected with 10 μg of pCMV (V) or phSirt4-FLAG (4). Cells were harvested and lysed in NP-40 buffer containing protease inhibitors and 1 mM DTT. […] An endogenous interaction between Sirt4 and glutamate dehydrogenase was determined in MIN6 cells. […] Proteins were separated by SDS-PAGE, transferred to nitrocellulose membrane, and the radioactivity was measured by exposure to x-ray film.
Mitochondria from 293T control or Sirt4-FLAG overexpressing cells were incubated with [³²P]-NAD, and the ADP-ribosylation state of glutamate dehydrogenase was measured by immunoprecipitation and subsequent autoradiography. […] Moreover, a small amount of labeled glutamate dehydrogenase could be detected in a complex with Sirt4 (FIG. 5E).

T1 sequence (P00367 54-558): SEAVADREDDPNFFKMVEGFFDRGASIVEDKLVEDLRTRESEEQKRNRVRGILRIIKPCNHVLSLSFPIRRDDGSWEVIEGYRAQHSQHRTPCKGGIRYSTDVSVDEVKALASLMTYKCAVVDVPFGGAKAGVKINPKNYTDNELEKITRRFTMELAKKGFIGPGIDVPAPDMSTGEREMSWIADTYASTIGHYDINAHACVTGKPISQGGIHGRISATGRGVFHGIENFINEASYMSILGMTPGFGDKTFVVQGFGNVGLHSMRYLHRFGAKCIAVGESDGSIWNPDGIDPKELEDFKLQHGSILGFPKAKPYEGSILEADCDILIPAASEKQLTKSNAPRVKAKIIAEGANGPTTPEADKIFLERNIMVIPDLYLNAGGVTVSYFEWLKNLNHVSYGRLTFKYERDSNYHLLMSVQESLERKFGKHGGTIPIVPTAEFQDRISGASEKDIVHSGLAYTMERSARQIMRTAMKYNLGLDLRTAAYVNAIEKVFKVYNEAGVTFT

binding result: binds
B1: human Sirt4 with a C-terminal FLAG (enzyme)
chain: IGLFVPASPPLDPEKVKELQRFITLSKRLLVMTGAGISTESGIPDYRSEKVGLYARTDRRPIQHGDFVRSAPIRQRYWARNFVGWPQFSSHQPNPAHWALSTWEKLGKLYWLVTQNVDALHTKAGSRRLTELHGCMDRVLCLDCGEQTPRGVLQERFQVLNPTWSAEAHGLAPDGDVFLSEEQVRSFQVPTCVQCGGHLKPDVVFFGDTVNPDKVDFVHKRVKEADSLLVVGSSLQVYSGYRFILTAWEKKLPIAILNIGPTRSDDLACLKLNSRCGELLPLIDPC
notes: Overexpressed in 293T cells from phSirt4FLAG; Used in cell lysate or immunoprecipitated and eluted with FLAG peptide; also called hSirt4-FLAG; Sirt4-FLAG; not shown: C-terminal FLAG tag from vector pCMV-FLAG-4A
